Measurements reported in article doi:10.1101/2021.07.29.454387 (bioRxiv, 2021).

Experiments:
Experiment in all cases: ITC
[1] = biological target: PDLIM7 PDZ domain (1-84) Q67A (human, UniProt Q9NR12 1-84, Q67A)
[2] = biological target: PDLIM7 PDZ domain (1-84) H63A (human, UniProt Q9NR12 1-84, H63A)
[3] = biological target: PDLIM7 PDZ domain (1-84) P11E (human, UniProt Q9NR12 1-84, P11E)
[4] = biological target: PDLIM7 PDZ domain (1-84) W14Y (human, UniProt Q9NR12 1-84, W14Y)
[5] = biological target: T1, PDZ domain of human PDLIM4 (residues 1-84) (human, UniProt P50479 1-84)
T1 sequence: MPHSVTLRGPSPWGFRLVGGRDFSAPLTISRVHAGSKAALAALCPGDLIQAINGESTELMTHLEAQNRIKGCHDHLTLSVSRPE

[6] = biological target: T2, PDZ domain of human PDLIM3 (residues 1-84) (human, UniProt Q53GG5 1-84)
T2 sequence: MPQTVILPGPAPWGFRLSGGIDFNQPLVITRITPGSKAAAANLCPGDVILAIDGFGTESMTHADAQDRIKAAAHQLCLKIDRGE

[7] = biological target: PDZ domain of human PDLIM7 (residues 1-84) (human, UniProt Q9NR12 1-84)
[8] = biological target: T3, PDZ domain of human PDLIM5 (residues 1-84) (human, UniProt Q96HC4 1-84)
T3 sequence: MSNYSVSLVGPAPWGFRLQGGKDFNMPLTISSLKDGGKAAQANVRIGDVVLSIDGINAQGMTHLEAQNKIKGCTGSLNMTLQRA

[9] = biological target: T4, PDZ domain of human PDLIM2 (residues 1-84) (human, UniProt Q96JY6 1-84)
T4 sequence: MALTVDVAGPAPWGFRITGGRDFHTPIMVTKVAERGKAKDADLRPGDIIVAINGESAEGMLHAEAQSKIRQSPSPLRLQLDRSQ

[10] = biological target: T5, PDZ domain of human PDLIM1 (residues 1-84) (human, UniProt O00151 1-84)
T5 sequence: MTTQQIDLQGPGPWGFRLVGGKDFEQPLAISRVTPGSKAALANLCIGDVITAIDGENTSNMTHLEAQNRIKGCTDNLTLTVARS

Measured: binding result

Chain of PDZ domain of human PDLIM7 (residues 1-84) (Q9NR12 1-84): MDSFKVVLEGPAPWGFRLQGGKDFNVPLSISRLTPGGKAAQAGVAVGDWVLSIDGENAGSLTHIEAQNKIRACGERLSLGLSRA
Chain of PDLIM7 PDZ domain (1-84) W14Y (Q9NR12 1-84 W14Y): as the sequence (Q9NR12 1-84) above, with W14Y counted along it
Chain of PDLIM7 PDZ domain (1-84) P11E (Q9NR12 1-84 P11E): as the sequence (Q9NR12 1-84) above, with P11E counted along it
Chain of PDLIM7 PDZ domain (1-84) Q67A (Q9NR12 1-84 Q67A): as the sequence (Q9NR12 1-84) above, with Q67A counted along it
Chain of PDLIM7 PDZ domain (1-84) H63A (Q9NR12 1-84 H63A): as the sequence (Q9NR12 1-84) above, with H63A counted along it

HGNFAFEGIGDEDL [SNX17 C-terminal peptide (457-470) used for ITC]
binds: [1] | [2] | [3] | [4] | [5] | [6] | [7] | [8] | [9] | [10]

HGNFAFEGIGDRDL [SNX17 C-terminal peptide E468R]
binds: [7]
